# Experimental data from patent US20260217793A1 (Chugai, published 2026).
# Residue numbers refer to the chain shown, from its start.
# T1: FcγRIIa type R extracellular domain with C-terminal His tag (human, UniProt P12318 34-217)
# T1 sequence (looked up): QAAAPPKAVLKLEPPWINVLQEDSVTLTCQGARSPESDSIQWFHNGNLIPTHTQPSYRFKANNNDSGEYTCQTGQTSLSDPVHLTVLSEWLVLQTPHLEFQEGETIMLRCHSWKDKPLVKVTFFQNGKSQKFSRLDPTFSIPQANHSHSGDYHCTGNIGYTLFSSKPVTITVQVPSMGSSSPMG
# T2: FcγRIIb extracellular domain with C-terminal His tag (human, UniProt P31994 43-217)
# T2 sequence (looked up): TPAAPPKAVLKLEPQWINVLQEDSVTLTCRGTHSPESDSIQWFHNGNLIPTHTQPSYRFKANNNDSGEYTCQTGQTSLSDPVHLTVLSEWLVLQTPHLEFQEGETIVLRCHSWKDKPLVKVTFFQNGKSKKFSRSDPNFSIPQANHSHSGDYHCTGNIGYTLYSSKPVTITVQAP
# T3: human FcγRIIa type R (Arg131) extracellular domain with C-terminal His tag (human, UniProt P12318 34-217)
# T3 sequence (looked up): T1 sequence (looked up)
# T4: human FcγRIIb extracellular domain with C-terminal His tag (human, UniProt P31994 43-217)
# T4 sequence (looked up): T2 sequence (looked up)
# T5: FcγRIIa type H extracellular domain with C-terminal His tag (human, UniProt P12318 34-217)
# T5 sequence (looked up): T1 sequence (looked up) with R134H
# T6: human FcγRIIa type H (His131) extracellular domain with C-terminal His tag (human, UniProt P12318 34-217)
# T6 sequence (looked up): T1 sequence (looked up) with R134H
# B1: IL6R-BP543/IL6R-L (antibody, human IgG1, kappa)
# heavy: QVQLQESGPGLVKPSETLSLTCAVSGHSISHDHAWSWVRQPPGEGLEWIGFISYSGITNYNPSLQGRVTISRDNSKNTLYLQMNSLRAEDTAVYYCARSLARTTAMDYWGEGTLVTVSSASTKGPSVFPLAPSSKSTSGGTAALGCLVKDYFPEPVTVSWNSGALTSGVHTFPAVLQSSGLYSLSSVVTVPSSSLGTQTYICNVNHKPSNTKVDKKVEPKSCDKTHTCPPCPAPDLLGDDSVFLFPPKPKDTLMISRTPEVTCVVVDVSQEDGEVKFNWYVDGVEVHNAKTKPREEQDNSTYRVVSVLTVLHQDWLNGKEYKCKVSNKALPRPIEKTISKAKGQPREPQVYTLPPSRDELTKNQVSLTCLVKGFYPSDIAVEWESNGQPENNYKTTPPVLDSDGSFFLYSKLTVDKSRWQQGNVFSCSVMHEALHNHYTQESLSLSP
# light: not shown
# B2: IL6R-BP548/IL6R-L (antibody, human IgG1, kappa)
# heavy: B1 heavy with Q270D, Q421E
# light: not shown
# B3: IL6R-BP546/IL6R-L (antibody, human IgG1, kappa)
# heavy: B1 heavy with Q270D, L360M
# light: not shown
# B4: IL6R-BP544/IL6R-L (antibody, human IgG1, kappa)
# heavy: B1 heavy with Q270D, R357Q
# light: not shown
# B5: IL6R-BP541/IL6R-L (antibody, human IgG1, kappa)
# heavy: B1 heavy with Q270D, K276Q
# light: not shown
# B6: IL6R-BP262/IL6R-L (antibody, human IgG1, kappa)
# heavy: B1 heavy with D235E, Q270E, D298Y, R332A
# light: not shown
# B7: IL6R-BP499/IL6R-L (antibody, human IgG1, kappa)
# heavy: B1 heavy with V266I, S269A, Q270E, P398L
# light: not shown
# B8: IL6R-BP484/IL6R-L (antibody, human IgG1, kappa)
# heavy: B1 heavy with S269A, Q270E, E271D, D298Y, R332A
# light: not shown
# B9: IL6R-BP479/IL6R-L (antibody, human IgG1, kappa)
# heavy: B1 heavy with V266I, V268L, S269A, Q270E, D298Y, R332A
# light: not shown
# B10: IL6R-BP481/IL6R-L (antibody, human IgG1, kappa)
# heavy: B1 heavy with V266I, S269A, Q270E, D298Y, R332A
# light: not shown
# B11: IL6R-BP269/IL6R-L (antibody, human IgG1, kappa)
# heavy: B1 heavy with D235E, Q270E, R332A
# light: not shown
# B12: IL6R-BP497/IL6R-L (antibody, human IgG1, kappa)
# heavy: B1 heavy with V266I, S269A, Q270E, D298Y, A329G
# light: not shown
# B13: IL6R-BP560/IL6R-L (antibody, human IgG1, kappa)
# heavy: B1 heavy with D235E, D239G, S269G, Q270E
# light: not shown
# B14: IL6R-BP564/IL6R-L (antibody, human IgG1, kappa)
# heavy: B1 heavy with D235E, Q270E, E274D
# light: not shown
# B15: IL6R-BP562/IL6R-L (antibody, human IgG1, kappa)
# heavy: B1 heavy with D235E, Q270D, E274D
# light: not shown
# B16: IL6R-BP559/IL6R-L (antibody, human IgG1, kappa)
# heavy: B1 heavy with D235E, D239G, V266I, S269A, Q270E, E274D, R332A
# light: not shown
# B17: IL6R-BP549/IL6R-L (antibody, human IgG1, kappa)
# heavy: B1 heavy with D235E, S269G, Q270E, D298Y
# light: not shown
# B18: IL6R-BP539/IL6R-L (antibody, human IgG1, kappa)
# heavy: B1 heavy with D235E, V266I, S269G, Q270E, E274P
# light: not shown
# B19: IL6R-BP533/IL6R-L (antibody, human IgG1, kappa)
# heavy: B1 heavy with V266I, S269G, Q270E, P398L
# light: not shown
# B20: IL6R-BP230/IL6R-L (antibody, human IgG1, kappa)
# heavy: B1 heavy with Q270D
# light: not shown
# B21: IL6R-BP545/IL6R-L (antibody, human IgG1, kappa)
# heavy: B1 heavy with Q270D, D358E
# light: not shown
# B22: IL6R-BP542/IL6R-L (antibody, human IgG1, kappa)
# heavy: B1 heavy with Q270D, D298F
# light: not shown
# B23: IL6R-BP547/IL6R-L (antibody, human IgG1, kappa)
# heavy: B1 heavy with Q270D, K411R
# light: not shown
# B24: IL6R-BP557/IL6R-L (antibody, human IgG1, kappa)
# heavy: B1 heavy with D235E, S269G, Q270D
# light: not shown
# Molecular target: T1, FcγRIIa type R extracellular domain …
# Test: ratio of SPR KDs vs IL6R-B3/IL6R-L
row,KD (IIaR) of parent polypeptide/KD (IIaR) of altered polypeptide,Binder
1,1.9,B1
2,2.2,B2
3,2.2,B3
4,2.2,B4
5,2.4,B5

# Molecular target: T2, FcγRIIb extracellular domain with …
# Test: ratio of SPR KDs vs IL6R-B3/IL6R-L
row,KD (IIb) of parent polypeptide/KD (IIb) of altered polypeptide,Binder
1,152,B1
2,162,B2
3,205,B3
4,184,B4
5,190,B5

# Molecular target: T1, FcγRIIa type R extracellular domain …
# Test: ratio of SPR KDs vs IL6R-B3/IL6R-L
# Remark: another data set of the same source
row,KD (IIaR) of parent polypeptide/KD (IIaR) of altered polypeptide,Binder
1,0.5,B6
2,22.3,B7
3,1.4,B8
4,1.2,B9
5,2.8,B10
6,0.5,B11

# Molecular target: T2, FcγRIIb extracellular domain with …
# Test: ratio of SPR KDs vs IL6R-B3/IL6R-L
# Remark: another data set of the same source
row,KD (IIb) of parent polypeptide/KD (IIb) of altered polypeptide,Binder
1,25.8,B6
2,2120,B7
3,67.8,B8
4,764,B12
5,55.5,B9
6,160,B10
7,27.4,B11

# Molecular target: T3, human FcγRIIa type R (Arg131) …
# Test: SPR
row,KD (IIaR) of parent polypeptide/KD (IIaR) of altered polypeptide,Binder
1,0.3,B13
2,1.9,B14
3,1.6,B15
4,0.7,B16
5,1.9,B17
6,3.4,B18

# Molecular target: T4, human FcγRIIb extracellular domain with …
# Test: SPR
row,KD (IIb) of parent polypeptide/KD (IIb) of altered polypeptide,Binder
1,16.8,B13
2,141,B14
3,756,B19
4,131,B15
5,110,B16
6,196,B17
7,369,B18

# Molecular target: T5, FcγRIIa type H extracellular domain …
# Test: SPR
row,Kd,Binder
1,9.7 µM,B20
2,7.4 µM,B1
3,9.1 µM,B21
4,9.4 µM,B2
5,10 µM,B3
6,9.7 µM,B22
7,12 µM,B4
8,7.5 µM,B23
9,9.3 µM,B5

# Molecular target: FcγRIIIa type V extracellular domain with C-terminal His tag (human, UniProt P08637 17-208)
# Test: SPR
# FcγRIIIa type V extracellular domain with C-terminal His tag, sequence (P08637 17-208 F176V): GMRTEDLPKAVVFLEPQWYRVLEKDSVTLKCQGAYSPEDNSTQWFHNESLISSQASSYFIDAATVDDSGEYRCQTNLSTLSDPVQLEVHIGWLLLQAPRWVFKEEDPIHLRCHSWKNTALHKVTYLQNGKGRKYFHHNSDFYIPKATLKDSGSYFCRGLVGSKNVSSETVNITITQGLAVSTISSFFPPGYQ
row,Kd,Binder
1,39 µM,B20
2,46 µM,B1
3,45 µM,B21
4,34 µM,B2
5,37 µM,B3
6,43 µM,B22
7,45 µM,B4
8,35 µM,B23
9,41 µM,B5

# Molecular target: T2, FcγRIIb extracellular domain with …
# Test: ratio of SPR KDs, FcγRIIaR over FcγRIIb, same variant
row,KD (IIaR)/KD (IIb),Binder
1,27.3,B1
2,26.2,B2
3,32.8,B3
4,28.8,B4
5,27.8,B5

# Molecular target: T2, FcγRIIb extracellular domain with …
# Test: ratio of SPR KDs, FcγRIIaH over FcγRIIb, same variant
row,KD (IIaH)/KD (IIb),Binder
1,375,B6
2,685,B7
3,241,B8
4,236,B12
5,268,B9
6,350,B10
7,637,B11

# Molecular target: T2, FcγRIIb extracellular domain with …
# Test: ratio of SPR KDs, FcγRIIaR over FcγRIIb, same variant
# Remark: another data set of the same source
row,KD (IIaR)/KD (IIb),Binder
1,17,B6
2,33.8,B7
3,17.1,B8
4,21,B12
5,16.1,B9
6,20.5,B10
7,19.6,B11

# Molecular target: T4, human FcγRIIb extracellular domain with …
# Test: SPR
# Remark: another data set of the same source
row,KD (IIaR)/KD (IIb),Binder
1,28.3,B19
2,38,B18

# Molecular target: T6, human FcγRIIa type H (His131) …
# Test: SPR
row,Kd,Binder
1,31 µM,B13
2,15 µM,B24
3,10 µM,B14
4,11 µM,B15
5,20 µM,B16
6,11 µM,B17

# Molecular target: human FcγRIIIa type V (Val158) extracellular domain with C-terminal His tag (human, UniProt P08637 17-208)
# Test: SPR
# human FcγRIIIa type V (Val158) extracellular domain with C-terminal His tag, sequence (P08637 17-208 F176V): as above
row,Kd,Binder
1,41 µM,B13
2,29 µM,B24
3,49 µM,B14
4,27 µM,B19
5,53 µM,B15
6,44 µM,B16
7,24 µM,B17
8,34 µM,B18
